Experiments:
B-16 melanoma cells = B-16 melanoma cells (mice); cited from earlier work
HeLa cells = HeLa cells (human); cited from earlier work
lung cancer cells 3LL = lung cancer cells 3LL (mice); cited from earlier work
osteoclasts = details: cited from earlier work
prostate cancer cells = details: cited from earlier work
[1] = tested on: Morris liver cancer cells; details: Morris liver cancer cells (rats); cited from earlier work
[2] = Glycosyltransfering reaction with crude enzyme, substrate Rh2; assay type: biochemical; details: cell lysate of recombinant yeasts, method of Example 4
Protocol: (§1) The lysate supernatant of the recombinant yeasts expressing the empty vector was used as control.
(§2) The reaction was conducted under 35° C. for 12 hrs, then stopped by adding 100 μL of butanol. The product were extracted, dried in vacuum, and dissolved in methanol.
(§3) The reaction products were first detected by thin layer chromatography (TLC). […]
(§4) The lysate supernatant of the recombinant yeast expressing empty vectors was used as control. The reaction was conducted under 35° C. for 12 hrs, and then stopped by adding 100 μL of butanol. The product were extracted, dried in vacuum, and dissolved in methanol.
(§5) The glycosyltransfering reactions of ginsenosides Rh2 and F2 were catalyzed by using the lysate supernatant of the recombinant yeasts expressing 3GT1, 3GT2, 3GT3 and 3GT4 as crude enzymes. The 100 μL reaction system is shown as Table 3. The reaction was conducted under 35° C. for 12 hrs, and then stopped by adding 100 μL of butanol. The product were extracted, dried in vacuum, and dissolved in methanol.

[3] = Glycosyltransfering reaction with crude enzyme, substrate Rg1; assay type: biochemical; details: cell lysate of recombinant yeasts, method of Example 4
[4] = Glycosyltransfering reaction with crude enzyme, substrate PPD; assay type: biochemical; details: cell lysate of recombinant yeasts, method of Example 4
[5] = Glycosyltransfering reaction with crude enzyme, substrate F2; assay type: biochemical; details: cell lysate of recombinant yeasts, method of Example 4
Protocol: (§6) According to the method as in Example 4, the cell lysate of recombinant yeasts expressing gGT13 and gGT30 were used to catalyze PPD and PPT.
as §4, §5

[6] = Glycosyltransfering reaction with crude enzyme, substrate F1; assay type: biochemical; details: cell lysate of recombinant yeasts, method of Example 4
Protocol: as §6
as §4, with “lysis” for “lysate”, “of” for “of the”, “E. coli” for “yeast”, “control. The 100 μL reaction system is shown as Table 3.” for “control.”, “hrs,” for “hrs, and”

[7] = Glycosyltransfering reaction with crude enzyme, substrate Rg3; assay type: biochemical; details: cell lysate of recombinant yeasts, method of Example 4
Protocol: as §1, §2, §3

[8] = Glycosyltransfering reaction with crude enzyme, substrate Rh1; assay type: biochemical; details: cell lysate of recombinant yeasts, method of Example 4
Protocol: as §1, §2, §3

[9] = Glycosyltransfering reaction with crude enzyme, substrate PPT; assay type: biochemical; details: cell lysate of recombinant yeasts, method of Example 4
[10] = Glycosyltransfering reaction with crude enzyme, substrate CK; assay type: biochemical; details: cell lysate of recombinant yeasts, method of Example 4
Protocol: as §6
as §5, with “ginsenosides” for “ginsenosides Rh2”, “ginsengenins” for “F2”, “lysis” for “lysate”, “enzymes. The lysis supernatant of recombinant E. coli expressing empty vectors was used as control.” for “enzymes.”, “hrs,” for “hrs, and”

Row | Molecule | inhibition of proliferation (B-16 melanoma cells) | inhibition of proliferation (HeLa cells) | inhibition of proliferation (lung cancer cells 3LL) | cytotoxicity to osteoclasts (osteoclasts) | inhibition of the generation of osteoclasts (osteoclasts) | inhibition of prostate cancer cells (prostate cancer cells) | inhibition of proliferation [1] | conversion of Rh2 [2] | conversion of Rg1 [3] | conversion of PPD [4] | conversion of F2 [5] | conversion of F1 [6] | conversion of Rg3 [7] | conversion of Rh1 [8] | conversion of PPT [9] | conversion of CK [10]
1 | CC(C)=CCC[C@](C)(O)[C@H]1CC[C@]2(C)[C@@H]1[C@H](O)C[C@@H]1[C@@]3(C)CC[C@H](O[C@@H]4O[C@H](CO)[C@@H](O)[C@H](O)[C@H]4O)C(C)(C)[C@@H]3CC[C@]12C [ginsenoside Rh2, 3-O-β-(D-glucopyranosyl)-20(S)-protopanaxadiol] | can inhibit the proliferation | can inhibit the proliferation | can inhibit the proliferation | strong cytotoxicity | poorly inhibits | significantly inhibit | can inhibit the proliferation | – | – | – | – | – | – | – | – | –
2 | gGT13: glycosyltransferase protein with 476 amino acids, SEQ ID NO.: 4 (protein, Panax ginseng; gGT13) MGAELILIPSPGVGHLVSTVEIAKLLISRDERLSITVLVMKFSHDTGVTAYTRSLQKDAPNRIVFVDLPQNESLISSPKSFFTSFIESQTSPVRDSVRQIVSRSDSNKLAGFVIDMFCTPMIDVANEFGVPTYVFFTSGAAFLGLQFYHLSLSDEHNQDLTEYKDTDVELSIPSFINPVPAKVLPSVILNKEGSTMLQSISRRFKEAKAILVNTFAELEPHAIKALGDNCKIPPIYPVGPIINLKNKEGTTQNHSSEDGIISWLDNQPPSSVVFLCFGSFGSFDEGQVREIANGLEQSGQRFLWSLRRRPEKMELPKDYENPEEVLPEGFIERTSGMGKVIGWAPQTAILSHPAVGGFVSHCGWNSTLESIWCGVPMATWPIYAEQQINAFELVKELGMAVEIKMDYREDYIFAPENNLVVTADQIEKGMRCLMMDGESEMRKKVEEMKEKSRMAMVKGGSSYISLGHFIEDVMRN | – | – | – | – | – | – | – | neither converted | neither converted | neither converted | neither converted | neither converted | neither converted | neither converted | neither converted | neither converted
3 | gGT30: glycosyltransferase protein with 451 amino acids, SEQ ID NO.: 6 (protein, Panax ginseng; gGT30) MATQKCFRVLVFPWLAHGHISPFLELARKLIEKGNFFIYFCSTPINLISIKKKLSGDDHQNYTKSIQLVEHNLPTLPQLPPHYHTTDGLPPNLNPTLRKAFEMSKLSFPNTLNTLKPDLLICDDLFQWPEIVASSHGVPVVRFQTCSVTAASFLAHIFTNPDVTYPFPAIYLHEYETDQIRRCVDAVFESGREESRNLLVVNTSKAIEEKYFYYYSLLRGNTKIMPVGPLIQQAPNGDEDMKVIEWLDKKDPCSTVFVSFGSEYFMQKEEVEEMAHGLELSNVNFIWVFRAPVGAEKVKLPLGFVERVGGRGIVMEGWAPQARILGHSSIGGFVSHCGWNSVLETINFGVPIIGMPMKFEQPMNARLLSELGVCVEIVGDETRRFGREEVGNVIREVVGGKIGDDLRRKVKELGAKIKEKQEEEMDDVLDELVQICNKKKRTVVHHHHHH | – | – | – | – | – | – | – | neither converted | neither converted | neither converted | neither converted | neither converted | neither converted | neither converted | neither converted | neither converted

From US9976167B2, “Group of glycosyltransferases and use thereof” (Shanghai Institutes For Biological Sciences, Chinese …, priority 2012, dated 2018)
